Consider four molecules from US20100143368A1 (Bristol-Myers Squibb, published 2010).

Test [1] addresses T1, recombinant human CD22 extracellular domain with C-terminal hexahistidine tag (human, UniProt P20273 20-687).
T1 construct: The whole entry is named here; also called CD22 ECD; CD22β extracellular domain
T1 sequence: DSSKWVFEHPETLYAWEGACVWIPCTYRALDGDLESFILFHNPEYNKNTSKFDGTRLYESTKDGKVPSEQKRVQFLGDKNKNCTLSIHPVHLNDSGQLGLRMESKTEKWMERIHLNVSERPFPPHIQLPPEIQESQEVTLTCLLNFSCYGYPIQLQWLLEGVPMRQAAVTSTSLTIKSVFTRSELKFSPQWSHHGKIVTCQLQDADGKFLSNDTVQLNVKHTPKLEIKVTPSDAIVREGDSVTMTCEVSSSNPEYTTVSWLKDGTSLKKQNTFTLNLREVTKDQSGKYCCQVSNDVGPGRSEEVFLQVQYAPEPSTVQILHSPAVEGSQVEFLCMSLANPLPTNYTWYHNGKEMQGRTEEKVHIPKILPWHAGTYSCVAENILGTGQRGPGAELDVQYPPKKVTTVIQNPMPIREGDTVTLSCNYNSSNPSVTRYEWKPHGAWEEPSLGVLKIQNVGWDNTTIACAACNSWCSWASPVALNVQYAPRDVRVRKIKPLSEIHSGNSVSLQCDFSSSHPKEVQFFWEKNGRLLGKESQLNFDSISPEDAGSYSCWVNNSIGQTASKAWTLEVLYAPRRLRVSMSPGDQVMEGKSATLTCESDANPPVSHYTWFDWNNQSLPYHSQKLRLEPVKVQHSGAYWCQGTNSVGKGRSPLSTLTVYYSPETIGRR
As to the kind of experiment: SPR (BIAcore 3000); CD22 ECD-His captured by anti-His mAb on CM5 chip, antibody injected at 20 µg/mL. How it is done:
For determination of antibody affinity (KD), experiments were performed in which the CD22 antigen was captured on a BIAcore chip using an antibody to the His tag present on the antigen. Anti-His monoclonal antibody ab15149 (Abcam, Stock conc.0.5 mg/mL) was coated on a CM5 chip at high density (3500RUs), as recommended by the manufacturer. CD22 ECD (6.6 μg/mL) was captured on this surface for 60 sec at a flow-rate of 6 μL/min. A single concentration (20 μg/mL) of anti-CD22 purified mAbs was injected over the captured antigen with an association time of 5 minutes and a dissociation time of 8 minutes, at a flow rate of […]. The chip surface was regenerated after each cycle with 10 μL of 25 mM NaOH. Isotype controls were run on the chip and the data used to subtract non-specific binding. All experiments were carried out on a BIAcore 3000 surface plasmon resonance instrument, using BIAcore Control software v 3.2. Data analysis was carried out using BiaEvaluation v. 3.2 software.
Fourteen of the selected anti-CD22 antibodies were tested in the affinity experiment.
(SPR reads the build-up and loss of mass on a sensor chip optically.)

Test [2] has as its target T2, full-length human CD22 expressed on the cell surface (human, UniProt P20273 20-847).
T2 construct: One molecule is used both for CHO transfectants with the full-length CD22 cDNA and for endogenous CD22 on Raji/Daudi cells; also called CHO-CD22; CHO cells transfected with full-length CD22
T2 sequence (looked up): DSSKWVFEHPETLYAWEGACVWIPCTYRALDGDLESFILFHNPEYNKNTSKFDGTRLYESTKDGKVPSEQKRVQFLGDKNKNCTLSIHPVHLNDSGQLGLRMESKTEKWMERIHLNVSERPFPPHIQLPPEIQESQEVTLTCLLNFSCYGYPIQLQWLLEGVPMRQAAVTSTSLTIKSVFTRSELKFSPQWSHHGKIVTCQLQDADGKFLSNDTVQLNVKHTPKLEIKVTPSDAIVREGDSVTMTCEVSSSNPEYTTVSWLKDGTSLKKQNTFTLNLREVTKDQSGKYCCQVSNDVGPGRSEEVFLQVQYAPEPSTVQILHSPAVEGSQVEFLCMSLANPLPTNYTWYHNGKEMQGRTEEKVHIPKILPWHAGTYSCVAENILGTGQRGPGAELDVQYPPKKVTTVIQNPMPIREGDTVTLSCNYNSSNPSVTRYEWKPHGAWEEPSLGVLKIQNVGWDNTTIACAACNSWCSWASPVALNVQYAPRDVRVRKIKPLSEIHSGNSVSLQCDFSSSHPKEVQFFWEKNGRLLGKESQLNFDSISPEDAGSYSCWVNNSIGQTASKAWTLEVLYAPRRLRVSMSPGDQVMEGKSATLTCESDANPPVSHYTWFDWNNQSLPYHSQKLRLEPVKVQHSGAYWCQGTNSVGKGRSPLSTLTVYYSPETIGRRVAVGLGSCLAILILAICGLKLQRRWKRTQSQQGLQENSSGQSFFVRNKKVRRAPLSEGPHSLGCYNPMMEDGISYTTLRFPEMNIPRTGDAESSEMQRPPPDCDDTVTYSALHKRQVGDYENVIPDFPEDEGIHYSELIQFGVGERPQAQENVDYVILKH
Kind of test: flow cytometry (FACS Array) on CHO cells transfected with full-length CD22, goat anti-human IgG-PE.

B1: anti-CD22 human monoclonal antibody 12C5 (antibody, IgG1, V domains shown)
VH: QVQLVQSGSELKKPGASVKVSCKASGYTFTSYAMNWVRQAPGQGLEWMGWINTNTGNPTYAQGFTGRFVFSLDTSVSTAYLQISSLKAEDTAVYYCARLFYYYFGMDVWGQGTTVTVSS
VL: QSALTQPASVSGSPGQSITISCTGTSSDVGSYNLVSWYQLHPGKAPKLMIYEVSKRPSGVSNRFSGSRSGNTASLTISGLQAEDEADYYCCSYANSSTLVFGGGTKLTVL
notes: Hybridoma-derived
For B1, the Kd (commonly the equilibrium constant for the complex coming apart) in test [1] came to 0.23 nM.

B2: recombinant human anti-CD22 monoclonal antibody CD22.1 (antibody, human IgG1, V domains shown)
VH: QVQLQQWGAGLLKPSETLSLTCAVYGRSFSSYYWSWIRQPPGKGLEWIGDINHSGSTNYNPSLKSRVTISVDTSKNQFSLKLSSVTAADTAVYYCAGTFYDILTGYYPLGYWGPGTLVTVSS
VL: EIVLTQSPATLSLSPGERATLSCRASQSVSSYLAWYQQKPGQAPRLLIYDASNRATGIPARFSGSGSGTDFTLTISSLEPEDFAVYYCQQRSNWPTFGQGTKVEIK
notes: also called 19A3 expressed in CHO cells (clone 8G9)
Consider B2, for which the EC50 (read off the curve) (usually the midpoint of the concentration-response curve) in test [2] was ~0.3 µg/mL.

B3: anti-CD22 human monoclonal antibody 19A3 (antibody, IgG1, V domains shown)
VH: QVQLQQWGAGLLKPSETLSLTCAVYGRSFSSYYWSWIRQPPGKGLEWIGDINHSGSTNYNPSLKSRVTISVDTSKNQFSLKLSSVTAADTAVYYCAGTFYDILTGYYPLGYWGPGTLVTVSS
VL: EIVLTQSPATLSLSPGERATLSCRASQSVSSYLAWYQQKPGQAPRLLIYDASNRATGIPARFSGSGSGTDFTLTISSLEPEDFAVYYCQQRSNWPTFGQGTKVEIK
notes: Hybridoma-derived; also called parental antibody 19A3
As for B3, the Kd in test [1] turned out to be 0.15 nM.

B4: recombinant human anti-CD22 monoclonal antibody CD22.2 (antibody, human IgG1, V domains shown)
VH: QVQLQQWGAGLLKPSETLSLTCAVYGRSFSSYYWSWIRQPPGKGLEWIGDIQHSGSTNYNPSLKSRVTISVDTSKNQFSLKLSSVTAADTAVYYCAGTFYDILTGYYPLGYWGPGTLVTVSS
VL: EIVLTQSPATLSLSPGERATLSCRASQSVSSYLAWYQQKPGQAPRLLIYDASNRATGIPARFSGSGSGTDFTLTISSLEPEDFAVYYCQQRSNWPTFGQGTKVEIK
notes: Variant of 19A3 with N57Q, which removes the N-glycosylation site in VH CDR2; also called 19A3 VH N57Q variant (clone 17E11)
For the molecule B4, the “EC50 (read off the curve)” value in test [2] is ~0.3 µg/mL.
